Results: the supplement of paper PMC12042874
± gives the uncertainty stated by the source.

Test: amyloid nucleation score (Sup35N fusion, yeast selection) (log enrichment); library NNK3; higher = more nucleation; inactive = no reads after selection
Procedure, shortened: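 Libraries of peptides of 20 random codons fused to Sup35N were expressed in psi-negative yeast and induced 24 hours with 100 μM copper sulfate. Selection was 7 days at 30°C on medium lacking adenine and uracil, and plasmid inserts were Illumina-sequenced before and after selection. Nucleation score is the DiMSum log enrichment of output over input reads, centred on the mode score of non-aggregating sequences, and sequences with under 100 input reads were left out.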

| Substance | amyloid nucleation score |
| --- | --- |
| DLIVILLTSYMYENVVVLNF | inactive |
| ILHKGNS | inactive |
| GHTANLTYALFMGDFSRAGI | inactive |
| FHLKKHWGKHGYFFMEDRRT | inactive |
| ACANYCGSFSTTTAEYDVPS | inactive |
| ISNVIMWNWGLDFTNYYSDS | 1.45 ± 0.093 |
| NVTCGRLTPSRDLKHAPVI | -0.32 ± 1.1 |
| AHRCFFHLSRHVRKYAIRQR | inactive |
| WVKPSSFWGFERNTYDIYIG | -0.176 ± 0.62 |
| YFNLSRIMLNELMCLVIIRQ | inactive |
| AYSDFRLTLSSYIVRANETC | inactive |
| FDLSLDSMKFEAFYFVVRLV | inactive |
| SWVHGERLMHDCQTLLLYSW | inactive |
| LVYPSFLLFKSIASHDSTGD | inactive |
| SIFPRTCTKFFLGVTGFCFN | -0.322 ± 0.8 |
| YGLSFHDLYGCCLRLGIGMD | 1.63 ± 0.081 |
| TYEVPGPPSQRSLSY | inactive |
| FRHCWRR | -0.532 ± 1.1 |
| LYDLNLSDLMNCRYTIRGWF | inactive |
| NIFSQWYIISCLFRGKLCEH | 1 ± 0.13 |
| TRVFTGKQPENDRET | inactive |
| KFCLWYSGTNELDLCEPSMT | inactive |
| FRYRNSSTEVCWKRSWLTLG | inactive |
| VNYDSLPVLRPGSEGGVLFN | inactive |

| Substance | amyloid nucleation score |
| --- | --- |
| DIQNFHQKTKGCLLFVWRRQ | inactive |
| NASLI | inactive |
| YFGSV | inactive |
| LHYKCNDVHQNGMLELCYLN | inactive |
| GSSAPKWVWNWFVPYGKRQG | 1.3 ± 0.089 |
| KPWMVEAPFERA | inactive |
| WKATNNAASVFGDLYGYYAN | inactive |
| DLVTSTGYSGVNAVSDIEDF | inactive |
| GCIYK | inactive |
| VMQYLLMAEKNQLRLQRFAR | inactive |
| CQPNWGWCSARIVLHILVLR | inactive |
| VRFYVAYFILFSDATAMALK | inactive |
| RWSVLAVSCM | inactive |
| TQLLMEFSTVSALDITPCDG | inactive |
| GSYSRTLTYPHGENHENRKV | inactive |
| LDAVNF | inactive |
| KSLSGVIREENRDARGFWRS | inactive |
| RYGFCHYCYRVLDFDVDVRW | 0.881 ± 0.14 |
| YRSFSSKDVSKL | inactive |
| KDYGLADGERHESM | inactive |
| ANMKINVVLLNDCGWGR | 1.5 ± 0.12 |
| TYMGSTYLSNSYVLVSNNIK | 1.72 ± 0.12 |
| FFIFRDVSTVDSLGPLYRLM | 1.14 ± 0.2 |
| FGSVVGRCSTSFVYRLINIR | 0.65 ± 0.17 |

| Substance | amyloid nucleation score |
| --- | --- |
| FLLTYVNIRGMQP | 1.49 ± 0.099 |
| LVGFRTGTALLDQMAL | inactive |
| PNVMNNFVCITDPIPVGSMW | inactive |
| SNRIYHVVFID | 1.89 ± 0.1 |
| LIRTIEYLGRRISSQGCLHT | inactive |
| WCMFMMSNWRVRPADLFCIS | inactive |
| ECTLGCTSDWGNLKARHGVR | inactive |
| CNVNIHYFGTV | inactive |
| SWCWYMCSGLNIEIAKGLTR | inactive |
| FYQNLFRILMHNVHAVCPCY | inactive |
| VSSEGYIADTA | 0.292 ± 0.57 |
| YCHILTLATVMKPTFERAPS | inactive |
| YQSGTLWCQCIWFKMRWRVH | inactive |
| LWEDNVWVLKR | -0.1 ± 0.19 |
| PFENR | inactive |
| QISFGLLINLSVIFSGLDLV | 0.801 ± 0.27 |
| RPVKCSLYMTGQLQRLDGVN | 0.915 ± 0.14 |
| TPLFHWKNQVSRSFLVWNDL | inactive |
| LHAFLEVSVRYTKSRST | inactive |
| RYGLVVIAVVSAVHDGDACS | inactive |
| DFARGYGDNALVFYLYGLMY | -0.684 ± 0.8 |
| ISMLTVVSN | inactive |
| EVFGVIDDNYFCR | inactive |
| FVIVGSGSQSPEYIWNVKYE | -0.049 ± 0.32 |

| Substance | amyloid nucleation score |
| --- | --- |
| ICNFHSSRPLNIS | inactive |
| HCDCTFYSSLGFIGGTWDSC | inactive |
| GSRCCNSAFNKECLSITEHS | -0.485 ± 0.8 |
| TWGPHLIPLFNNL | inactive |
| TPGSYLGYCIPRFIGLQYDP | inactive |
| GILFNK | inactive |
| SVLLHLNRNVMWTMPSRGAF | inactive |
| YSIIVSRNRNGRLRFRWSNG | -0.368 ± 0.8 |
| CVRYWKLGVVLRDG | inactive |
| YTDSLVLPHGHMIGRVQSFY | inactive |
| TEGAYRSW | inactive |
| IRGKYRLVVRDSLNVTPYRV | inactive |
| HFCKRLENIVYLRIFIFYLN | inactive |
| IFINRKE | -0.431 ± 0.76 |
| FLLFFILPSVRDLASHKSRG | 0.099 ± 0.19 |
| RLWYGTYWFT | inactive |
| PCDQD | inactive |
| LQRIGIYMTTFCENRCPDAE | inactive |
| VEPDRERKENVC | inactive |
| SMFTAIASTTFNLQSLYLM | inactive |
| FVKCSRMF | inactive |
| MRRYIRNIKAHMCVIVRVYL | inactive |
| VNSGVGVSVRRASSLCLCVR | inactive |
| SCRLLNFIICIGWVWGFDVS | inactive |

| Substance | amyloid nucleation score |
| --- | --- |
| VSYGTCH | inactive |
| RYKVD | inactive |
| FGFYKWPTTCLGSVSSLSSM | 0.749 ± 0.11 |
| SEKYATSKYCQVTFGVTLPS | inactive |
| VYRLFRMYILTGGLNVNGGR | inactive |
| SWRRWSPCLIEVWHMFSLVT | inactive |
| LFNYVEEIRAVRRIRLGYIK | inactive |
| SITTEVFDSQVNKLRELDGW | inactive |
| LDGRYKYILFLLPLCRW | inactive |
| IGVTPDHRSMLGRNLCLC | inactive |
| LSMSYLMSVLLCDLQKVYNT | inactive |
| GCLYVW | inactive |
| DACTVVCVCIQSIRGSQVSC | 1.09 ± 0.15 |
| SRGVRIDKMVWNVIGFCHGW | 2.8 ± 0.08 |
| LLLRCANHFCYMDATDIYFR | inactive |
| CLYLAS | inactive |
| FRHCGCHTFLCIIVTDRHHY | 1.85 ± 0.061 |
| RTFPNTWHAMIFGCVNKPNC | inactive |
| VRLYMYMTILIGNVDLFVEG | inactive |
| SVYDNYSLGNRYWERTFWLS | inactive |
| PVLML | inactive |
| YFLDV | inactive |
